Patent US20220356217A1
pIC50: −log10 of the molar value.

Molecular target: human integrin αIIbβ3 on cells (K562 cells stably expressing αIIbβ3; human platelets) (human) (UniProt P08514)
Assay: FACS; displacement of Alexa647-labeled soluble fibrinogen from activated αIIbβ3-K562 cells

eptifibatide (peptide)
pIC50: 7.14
